T1: HA Nercc (full-length Nercc1 with HA epitope tag) (human, UniProt Q8TD19 1-979)
T1 construct: also called HA Nercc FL
T1 sequence: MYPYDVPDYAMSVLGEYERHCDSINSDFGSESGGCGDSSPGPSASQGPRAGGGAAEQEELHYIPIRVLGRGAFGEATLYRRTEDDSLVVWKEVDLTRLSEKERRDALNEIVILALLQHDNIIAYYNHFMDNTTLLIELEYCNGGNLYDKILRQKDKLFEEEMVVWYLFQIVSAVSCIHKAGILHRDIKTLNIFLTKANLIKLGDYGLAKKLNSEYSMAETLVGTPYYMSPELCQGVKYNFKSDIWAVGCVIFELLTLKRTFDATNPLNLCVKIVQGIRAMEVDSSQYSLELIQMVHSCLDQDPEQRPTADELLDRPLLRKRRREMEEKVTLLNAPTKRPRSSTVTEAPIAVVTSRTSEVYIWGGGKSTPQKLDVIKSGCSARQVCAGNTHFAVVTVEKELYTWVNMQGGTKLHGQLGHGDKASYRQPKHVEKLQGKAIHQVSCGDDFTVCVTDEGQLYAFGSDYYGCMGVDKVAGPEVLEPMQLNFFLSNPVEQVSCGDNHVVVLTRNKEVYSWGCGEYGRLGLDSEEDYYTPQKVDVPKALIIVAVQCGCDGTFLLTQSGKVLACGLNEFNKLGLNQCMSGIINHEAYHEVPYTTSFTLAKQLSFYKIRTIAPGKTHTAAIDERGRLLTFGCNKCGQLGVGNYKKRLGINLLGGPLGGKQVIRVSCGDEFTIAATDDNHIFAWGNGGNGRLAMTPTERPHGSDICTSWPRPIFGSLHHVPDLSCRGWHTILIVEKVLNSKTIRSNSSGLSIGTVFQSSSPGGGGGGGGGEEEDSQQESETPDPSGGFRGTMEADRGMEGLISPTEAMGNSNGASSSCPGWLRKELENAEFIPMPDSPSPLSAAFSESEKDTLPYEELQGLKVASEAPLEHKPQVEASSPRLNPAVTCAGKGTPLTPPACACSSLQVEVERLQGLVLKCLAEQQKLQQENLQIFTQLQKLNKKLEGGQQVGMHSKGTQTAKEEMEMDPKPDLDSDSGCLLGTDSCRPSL

B1: FLAG Nercc (full-length wild type Nercc1 kinase with FLAG epitope tag) (enzyme)
chain: MDYKDDDDKMSVLGEYERHCDSINSDFGSESGGCGDSSPGPSASQGPRAGGGAAEQEELHYIPIRVLGRGAFGEATLYRRTEDDSLVVWKEVDLTRLSEKERRDALNEIVILALLQHDNIIAYYNHFMDNTTLLIELEYCNGGNLYDKILRQKDKLFEEEMVVWYLFQIVSAVSCIHKAGILHRDIKTLNIFLTKANLIKLGDYGLAKKLNSEYSMAETLVGTPYYMSPELCQGVKYNFKSDIWAVGCVIFELLTLKRTFDATNPLNLCVKIVQGIRAMEVDSSQYSLELIQMVHSCLDQDPEQRPTADELLDRPLLRKRRREMEEKVTLLNAPTKRPRSSTVTEAPIAVVTSRTSEVYIWGGGKSTPQKLDVIKSGCSARQVCAGNTHFAVVTVEKELYTWVNMQGGTKLHGQLGHGDKASYRQPKHVEKLQGKAIHQVSCGDDFTVCVTDEGQLYAFGSDYYGCMGVDKVAGPEVLEPMQLNFFLSNPVEQVSCGDNHVVVLTRNKEVYSWGCGEYGRLGLDSEEDYYTPQKVDVPKALIIVAVQCGCDGTFLLTQSGKVLACGLNEFNKLGLNQCMSGIINHEAYHEVPYTTSFTLAKQLSFYKIRTIAPGKTHTAAIDERGRLLTFGCNKCGQLGVGNYKKRLGINLLGGPLGGKQVIRVSCGDEFTIAATDDNHIFAWGNGGNGRLAMTPTERPHGSDICTSWPRPIFGSLHHVPDLSCRGWHTILIVEKVLNSKTIRSNSSGLSIGTVFQSSSPGGGGGGGGGEEEDSQQESETPDPSGGFRGTMEADRGMEGLISPTEAMGNSNGASSSCPGWLRKELENAEFIPMPDSPSPLSAAFSESEKDTLPYEELQGLKVASEAPLEHKPQVEASSPRLNPAVTCAGKGTPLTPPACACSSLQVEVERLQGLVLKCLAEQQKLQQENLQIFTQLQKLNKKLEGGQQVGMHSKGTQTAKEEMEMDPKPDLDSDSGCLLGTDSCRPSL
notes: Expressed in HEK293 cells; also called FLAG Nercc1; FLAG Nercc full length (FL)
B2: FLAG Nercc (1-891) (enzyme)
chain: MDYKDDDDKMSVLGEYERHCDSINSDFGSESGGCGDSSPGPSASQGPRAGGGAAEQEELHYIPIRVLGRGAFGEATLYRRTEDDSLVVWKEVDLTRLSEKERRDALNEIVILALLQHDNIIAYYNHFMDNTTLLIELEYCNGGNLYDKILRQKDKLFEEEMVVWYLFQIVSAVSCIHKAGILHRDIKTLNIFLTKANLIKLGDYGLAKKLNSEYSMAETLVGTPYYMSPELCQGVKYNFKSDIWAVGCVIFELLTLKRTFDATNPLNLCVKIVQGIRAMEVDSSQYSLELIQMVHSCLDQDPEQRPTADELLDRPLLRKRRREMEEKVTLLNAPTKRPRSSTVTEAPIAVVTSRTSEVYIWGGGKSTPQKLDVIKSGCSARQVCAGNTHFAVVTVEKELYTWVNMQGGTKLHGQLGHGDKASYRQPKHVEKLQGKAIHQVSCGDDFTVCVTDEGQLYAFGSDYYGCMGVDKVAGPEVLEPMQLNFFLSNPVEQVSCGDNHVVVLTRNKEVYSWGCGEYGRLGLDSEEDYYTPQKVDVPKALIIVAVQCGCDGTFLLTQSGKVLACGLNEFNKLGLNQCMSGIINHEAYHEVPYTTSFTLAKQLSFYKIRTIAPGKTHTAAIDERGRLLTFGCNKCGQLGVGNYKKRLGINLLGGPLGGKQVIRVSCGDEFTIAATDDNHIFAWGNGGNGRLAMTPTERPHGSDICTSWPRPIFGSLHHVPDLSCRGWHTILIVEKVLNSKTIRSNSSGLSIGTVFQSSSPGGGGGGGGGEEEDSQQESETPDPSGGFRGTMEADRGMEGLISPTEAMGNSNGASSSCPGWLRKELENAEFIPMPDSPSPLSAAFSESEKDTLPYEELQGLKVASEAPLEHKPQVEASSPRLNPAVTCAGKGTPLTPPACA
B3: NLS Nercc FL (nuclear form of full length Nercc with an NLS peptide at the N-terminus) (enzyme)
chain: MSVLGEYERHCDSINSDFGSESGGCGDSSPGPSASQGPRAGGGAAEQEELHYIPIRVLGRGAFGEATLYRRTEDDSLVVWKEVDLTRLSEKERRDALNEIVILALLQHDNIIAYYNHFMDNTTLLIELEYCNGGNLYDKILRQKDKLFEEEMVVWYLFQIVSAVSCIHKAGILHRDIKTLNIFLTKANLIKLGDYGLAKKLNSEYSMAETLVGTPYYMSPELCQGVKYNFKSDIWAVGCVIFELLTLKRTFDATNPLNLCVKIVQGIRAMEVDSSQYSLELIQMVHSCLDQDPEQRPTADELLDRPLLRKRRREMEEKVTLLNAPTKRPRSSTVTEAPIAVVTSRTSEVYIWGGGKSTPQKLDVIKSGCSARQVCAGNTHFAVVTVEKELYTWVNMQGGTKLHGQLGHGDKASYRQPKHVEKLQGKAIHQVSCGDDFTVCVTDEGQLYAFGSDYYGCMGVDKVAGPEVLEPMQLNFFLSNPVEQVSCGDNHVVVLTRNKEVYSWGCGEYGRLGLDSEEDYYTPQKVDVPKALIIVAVQCGCDGTFLLTQSGKVLACGLNEFNKLGLNQCMSGIINHEAYHEVPYTTSFTLAKQLSFYKIRTIAPGKTHTAAIDERGRLLTFGCNKCGQLGVGNYKKRLGINLLGGPLGGKQVIRVSCGDEFTIAATDDNHIFAWGNGGNGRLAMTPTERPHGSDICTSWPRPIFGSLHHVPDLSCRGWHTILIVEKVLNSKTIRSNSSGLSIGTVFQSSSPGGGGGGGGGEEEDSQQESETPDPSGGFRGTMEADRGMEGLISPTEAMGNSNGASSSCPGWLRKELENAEFIPMPDSPSPLSAAFSESEKDTLPYEELQGLKVASEAPLEHKPQVEASSPRLNPAVTCAGKGTPLTPPACACSSLQVEVERLQGLVLKCLAEQQKLQQENLQIFTQLQKLNKKLEGGQQVGMHSKGTQTAKEEMEMDPKPDLDSDSGCLLGTDSCRPSL
notes: Probably FLAG-tagged like the other constructs; not shown: NLS peptide (a copy of the Nercc NLS)
B4: FLAG Nercc (338-739) (other)
chain: MDYKDDDDKPIAVVTSRTSEVYIWGGGKSTPQKLDVIKSGCSARQVCAGNTHFAVVTVEKELYTWVNMQGGTKLHGQLGHGDKASYRQPKHVEKLQGKAIHQVSCGDDFTVCVTDEGQLYAFGSDYYGCMGVDKVAGPEVLEPMQLNFFLSNPVEQVSCGDNHVVVLTRNKEVYSWGCGEYGRLGLDSEEDYYTPQKVDVPKALIIVAVQCGCDGTFLLTQSGKVLACGLNEFNKLGLNQCMSGIINHEAYHEVPYTTSFTLAKQLSFYKIRTIAPGKTHTAAIDERGRLLTFGCNKCGQLGVGNYKKRLGINLLGGPLGGKQVIRVSCGDEFTIAATDDNHIFAWGNGGNGRLAMTPTERPHGSDICTSWPRPIFGSLHHVPDLSCRGWHTILIVEKVLNSKTIRSNSSG
notes: also called Nercc RCC1 domain; Nercc RCC1-like domain
B5: Nercc (338-739) fused to the Nercc NLS (other)
chain: PIAVVTSRTSEVYIWGGGKSTPQKLDVIKSGCSARQVCAGNTHFAVVTVEKELYTWVNMQGGTKLHGQLGHGDKASYRQPKHVEKLQGKAIHQVSCGDDFTVCVTDEGQLYAFGSDYYGCMGVDKVAGPEVLEPMQLNFFLSNPVEQVSCGDNHVVVLTRNKEVYSWGCGEYGRLGLDSEEDYYTPQKVDVPKALIIVAVQCGCDGTFLLTQSGKVLACGLNEFNKLGLNQCMSGIINHEAYHEVPYTTSFTLAKQLSFYKIRTIAPGKTHTAAIDERGRLLTFGCNKCGQLGVGNYKKRLGINLLGGPLGGKQVIRVSCGDEFTIAATDDNHIFAWGNGGNGRLAMTPTERPHGSDICTSWPRPIFGSLHHVPDLSCRGWHTILIVEKVLNSKTIRSNSSG
notes: also called Nercc RCC1 domain directed to the nucleus; not shown: Nercc NLS

Legend:
[1] = target: T1, HA Nercc (full-length Nercc1 with HA …); test: anti-HA immunoprecipitation from co-transfected HEK293 cells, anti-FLAG blot
[2] = target: Ran G19V (UniProt P62826 1-216); test: co-expression and co-immunoprecipitation
From the text: (§1) To address more directly the relative binding in vivo of Nercc to Ran-GDP compared to Ran-GTP, the cytoplasmic wild type Nercc and a nuclear form of full length Nercc (NLS-Nercc) were each co-expressed with wild type Ran or Ran mutants that bind GDP (T24N) or GTP (G19V) exclusively; either Ran or Nercc was immunoprecipitated and probed for the association with the other polypeptide. The full-length wild type Nercc bound co-expressed wild type Ran and Ran T24N to a greater extent than RanG19V.

[3] = target: Ran T24N (UniProt P62826 1-216); test: co-expression and co-immunoprecipitation
From the text: as §1

Row | Binder | binding result [1] | binding result [2] | binding result [3]
1 | B1 | binds | – | –
2 | B2 | no binding | – | –
3 | B3 | – | no binding | –
4 | B4 | – | no binding | no binding
5 | B5 | – | no binding | no binding

Source: patent US20060052582A1 (published 2006)
